# Measured values taken from the domain aggregation screens of Martell et al. (2025).
# Assay: soluble fraction after stress (log2 fold change); higher = more stays soluble; pooled small domains, quantitative proteomics
# Conditions: stress: 75 degC
# 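Also: 20 min heating vs room temperature control held 20 min.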
row,Sequence,soluble fraction (log2)
1,HMTIGIGKSLDFNTSGEKAYRIYNFKGAYVGTFKASDMTSLKNEVQKSNVKAGAYMVRSLDGHVNRLIEIK,-1.49
2,HMTIGKIVNIIEGSYANVRSAPDQNSEPIGRAYPGDAFLVDPLGSSGDWVKVTYEGQSGFIFQAYISV,-3.94
3,HMTIGKRIKRRRIELKMSIDSLARTIGKDRSTVYRYESGAIDKVSSDVLAKLATALNTTPAYLIGL,-4.61
4,HMTIKNHIDEILKKEPFILENIKNGLINISALARQIEPQLSRKVGKKLNVNAIIMTIKRMEIDQLNK,-2.25
5,HMTIPNGTVVNGTVLEAREAGAYLVRVAGQTLTAQANLPLLVGQHFRAVWDSSGDIPVLRLSDAEQALLGK,-0.362
6,HMTIPRLPFAFAKRFGIVLDNRPSGFVAAHKEGLLPHVLLEVQRFLGDAYTLEVVSDDDFERILGQVYQT,-3.72
7,HMTIPSYAEAVRYVRRQPRINTSTLADGLGIRWSLALDYLERMARSGVVGAIEDDGWWPVAR,-0.977
8,HMTIRIPEEEYLTRAKRAAQMTAERGLDALFLFGSEGDFQNVRYFTSVTPIWERLGVVITASGKAAMLTGP,-0.145
9,HMTIRPEDVELVPAEDGYMQGDVVSNIFKGVHYELEVKANGYDWMVHTTKYVEVGSHVGIKVIPFNIQV,0.322
10,HMTISPYTKDDFLKGTKPFEDVYAHKADPFVHDRALEQMTIWAKSVGVNGFKKLYKAYIDSLRIKNKEI,-0.315
11,HMTKAGVDAWTRGDYAAAVKEWQAQAAKGDADAIFNLGQAFKLGKGVPQDLIKAEQLFGQAAA,0.246
12,HMTKDEIIIQSIIDAAKKLMQQYGLNKTTMEDIAKEAGKGKSTLYHYFKSKEEIFDQVINQEID,0.0589
13,HMTKEEFLDEIKKELGFMPYEEVIKAEKYFESYFNGSEADEKVIERFGSPKYAAQNYYRTHVAN,0.029
14,HMTKEEFLYELKKELSALDSAEATAYNLRYYSDYIDAEIAKGRSEQEVLDELGNPRWLVNSIKESG,-0.139
15,HMTKGDRIKARREELGLTQTDLAEAISSTKQNIYKYENNIISNIPSDKVEAIAEVLKISPAYLMGWGDE,-0.0377
16,HMTKGFSIQDISLSKSTMTFLQQNKITDLASLLSMSKSQIEGMKGFKPKMIQEIEKNLDKVGLVLAQD,-0.243
17,HMTKGVKVEIGTEEASVDLYVVMEYGTPIQKAAYDAQESVRKAIETMTNLHVVRVDVHVQGVSF,-0.466
18,HMTKGVWHTVKKGENLYRISLYYEVPQQEIKKANKIETENIVVGQKLFIPNTTKKSPIFALTP,-1.72
19,HMTKIDYSINQIYSLRNIENITIVLKDKRSFTGKILKIYWQNGSKIILFTTETRNYKFKEYEISEIYKS,-1.02

row,Sequence,soluble fraction (log2)
1,HMTKIEYTEQEFNDFIQAYKNNRKMFPEDYIVKTQVVFINKGFSKSQADMIIAQIETRLRLQGE,-2.91
2,HMTKIKAIFFDIDGTIRSFKTKTIPENTANTLKKLKEQGIKIFIATGRAPFHTTFLNDLLDFKFDGYITIN,-0.659
3,HMTKKSLFNQYLDDQKRLDIVTLQKAELVDLHKLADELNIDQYNQLKKNELIFKILQSNPSE,0.162
4,HMTKNEFLQGLKEELEGRVTHSAIQENIRYYDDYISQEVLKGSTEEEVTESLGGPRIIARTIVDAAYD,0.0243
5,HMTKPLHELLSQREFQVFTQLAAGRSVGEIAQQLSLSSNTVSTYRARILEKTGTRNDVELALYAIRR,-2.31
6,HMTKPTLMEVEIKGAIQNPGVYTLKRNSSISKLIKMSGPLLENADTSSISFTHILQDKDVVVIPEIK,-0.194
7,HMTKQEYLNQLKNELVKQGVADAEDVVTEYEQHFAFKLADGFGEEEIAKKLGDPAAIASQFVG,0.669
8,HMTKQMELLAQGAAKLSVDLNQRQLDQLQTYYRELVDWNQRMNLTAITQYEEVQVKHFLDSL,-0.477
9,HMTKRKNTEFRQQQIIEAAAKLIFKYGSEHLTVKRIAAQVGISEAAIYRHFTSKKSILSFLLSHIEE,-0.362
10,HMTKRTVKSVARKIADFNRERHRMPTYEEMLTLLAVRSKSVVHFWMNKLLQEGILEKDESGHLTFV,-0.179
11,HMTKSSAYLSAEKLINKKQYSDAIVKLNDALVTDSKNADIYNYLGFSHRKLGKMEDAAFFYNKALE,0.0234
12,HMTLDDSFYQKADEIIANHTKEERSLIPIIQDIQAEYRYLPPELLTYVAKEIGITDARAYSVASFYENFS,-0.521
13,HMTLDEDYFYYTLKAKEGYYRLYKKLGVDRKIIDSLNPNLKEMGLQVGMVIRVPKSQTSDLSVKNSLLVE,-1.64
14,HMTLHDLFPQAVEFVSEKEMISTAELQRKLMISYNSAAKIIDQLLHVDFIQKSESAGKYSVLIK,-2.66
15,HMTLNTQLFTWKKGVRVGEDDQGNIYYRTKDDKRRWVIFTGETEATKVSPDWHGWLHRTWATPPNK,-2.27
16,HMTLPGQDFIRASQLKELIAKYDKQYYEEGVSDISDAEYDRLYEEYLEFENKYPELKDMADAPTKRV,0.659
17,HMTLREQISALIKQGKLTQAKLARETGVNGGALSAWINGKYTGNVETVEEPIKHWMALNERK,-0.342
18,HMTLSVRQRMSQIINKIDVSNFTDFTKLFDINEGRLGVAVTFLAILELLKDTMIDVIQNEEFAPLHIKVSS,0.128
19,HMTMIIQLDKNITQEQRQFLVEELNRLSISPNFVSTQFTNYIVGIPKKEFDIRLIGNLPGIADIHFV,-1.58
